Kd and EC50 data for one molecule are collected here from patent publication US20120276104A1 (F STAR BIOTECHNOLOGISCHE FORSCHUNGS UND ENTWICKLUNGSGES M B …, published 2012).

Broadly, the Kd is the constant that tells how readily two partners part at equilibrium. Usually EC50 stands for the concentration that produces a half-maximal response. Read a low EC50 as higher potency in that assay.

In assay [1] the target is T1, recombinant soluble HER-2 protein (human, UniProt P04626 23-652, limits assumed).
T1 construct: Described only as 'recombinant soluble HER-2 protein'; also called recombinant HER-2
Nature of the assay: SPR (Biacore), soluble HER-2 coated on CM-5 chip, Fcab injected at 0.8-25 ug/ml, 1:1 model; SPR, recombinant soluble HER-2 on the chip. The method, then:
(§1) CM-5 chips are coated with increasing concentrations of recombinant soluble HER-2 protein. […] Then, buffer is injected to measure the off-rate of the binding reaction. The binding affinity (KD) is calculated using the BiaEval software using a 1:1 stochiometry model. […] Unbound Fcab is removed by two washing steps in FACS buffer. Cell bound Fcab is detected by incubation of the cells with polyclonal anti-human IgG antibodies coupled to phycoerythrin (SIGMA) for 30 minutes on ice as recommended by the manufacturer. Again, unbound detection antibodies are removed by two washing steps as above. Fcab binding is enumerated by flow cytometry by plotting the mean fluorescence intensity against the Fcab concentrations (FIG. 1, left panel).

Assay [2] deals with T2, HER-2 expressed on human tumor cells (human, UniProt P04626 23-1255).
T2 construct: whole, on cells; also called Her-2/neu; HER-2 on SKBR3, BT474 and HCC1954 cells
Nature of the assay: flow cytometry on SKBR3 cells, detection with anti-human IgG-phycoerythrin, MFI against Fcab concentration; flow cytometry, HER-2 on SKBR3 cells. Here is the method: as §1
Background: Flow cytometry measures light scatter and fluorescence of single cells or particles in a stream.

B1: Fcab H561-4 (other)
chain: TCPPCPAPELLGGPSVFLFPPKPKDTLMISRTPEVTCVVVDVSHEDPEVKFNWYVDGVEVHNAKTKPREEQYNSTYRVVSVLTVLHQDWLNGKEYKCKVSNKALPAPIEKTISKAKGQPREPQVYTLPPSRDEFFTYWVSLTCLVKGFYPSDIAVEWESNGQPENNYKTTPPVLDSDGSFFLYSKLTVDRRRWTAGNVFSCSVMHEALHNHYTQKSLSLSPGK
notes: also called Her-2 specific Fcab clone H561-4
Consider B1, for which the Kd in assay [1] is 7.5 nM. Also, the EC50 in assay [2] worked out at 2 nM.
